# B1: COV2-2449 IgG (antibody, V domains shown)
# VH: QVQLVESGGGVVQPGRSLRLSCATSGFTFSSFALHWVRQAPGKGLEWVTVISDDGNNKYYVDSVKGRFTISRDNSKNTLFLQMNSLRVEDTAIYYCARASYNSNWSIGEYFRDWGQGTLVTVSS
# VL: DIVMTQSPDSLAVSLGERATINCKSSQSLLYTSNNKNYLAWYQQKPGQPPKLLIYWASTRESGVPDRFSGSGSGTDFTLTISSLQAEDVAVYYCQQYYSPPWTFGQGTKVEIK
# Target: OC43 spike protein (FL-GCN4-Avi-His, 2P, biotinylated) (human coronavirus OC43, strain of …, UniProt P36334, stabilised, biotin on the Avi tag)
# Experiment: ELISA
# Details: both partners purified
binder,measurement,value
B1,binding result,binds
